In data set [1] the test system is dipeptidyl peptidase 4 (DPP-4). To be noted: cited from earlier work. The source says:
(§1) This truncated form is subsequently degraded by endopeptidases and presumably cleared via renal excretion. […] Consequently, DPP-4 resistant GLP-2 analogues with an extended half-life were developed.

The subject of data set [2] is enteric neurons and glial cells. The following applies: via the PI3K/Akt/mTOR pathway; cited from earlier work. The source says: (§2) GLP-2 regulates proliferative and cytoprotective pathways in the intestine. […] Additionally, it couples with the activation of the Ras/MAPK pathway and stimulates DNA synthesis.
The next data set has as its system intestinal epithelium. To be noted: rodents; cited from earlier work.
From the text: as §2

In another data set the test system is patients with SBS. To be noted: cited from earlier work.
From the text: as §1

Another data set deals with rat GLP-2R. The following applies: BHK fibroblasts stably transfected with the rat GLP-2R; cited from earlier work. The source says:
GLP-2 exerts its effects largely through interaction with the GLP-2 receptor (GLP-2R), which belongs to the class B1 of the G protein-coupled receptors. […] This led to the hypothesis that GLP-2 acts indirectly through a complex network of indirect mediators that induce diverse signaling pathways, which remains poorly understood.

Data set [3] addresses T1, human GLP-2R (Homo sapiens, UniProt O95838).
T1 construct: The full-length cDNA of human GLP-2R was synthesized, cloned, and inserted into the pLU.cmv.Zeo vector; expressed in transfected cells
T1 sequence (O95838 1-553): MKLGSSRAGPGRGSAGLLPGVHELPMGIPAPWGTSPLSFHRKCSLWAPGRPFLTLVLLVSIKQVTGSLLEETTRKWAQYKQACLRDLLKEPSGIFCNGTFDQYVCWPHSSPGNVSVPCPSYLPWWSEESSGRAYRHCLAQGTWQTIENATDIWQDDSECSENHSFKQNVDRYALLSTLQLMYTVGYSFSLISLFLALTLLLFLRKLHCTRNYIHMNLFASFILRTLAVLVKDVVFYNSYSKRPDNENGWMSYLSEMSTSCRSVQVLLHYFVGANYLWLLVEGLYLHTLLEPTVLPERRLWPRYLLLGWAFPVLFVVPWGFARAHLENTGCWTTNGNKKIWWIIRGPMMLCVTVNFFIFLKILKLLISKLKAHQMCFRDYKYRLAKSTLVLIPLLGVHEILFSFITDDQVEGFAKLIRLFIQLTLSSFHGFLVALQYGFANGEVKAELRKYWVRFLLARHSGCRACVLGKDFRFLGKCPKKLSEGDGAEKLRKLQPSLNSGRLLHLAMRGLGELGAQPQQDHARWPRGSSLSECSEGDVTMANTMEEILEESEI
Put plainly: Cell-based reporter gene assay (RGA), HEK293-GLP-2R-Luc, CRE-luciferase. To be noted: for dose-response curve in RGA / concentration–response curve in RGA (specificity): diluted to 2.665 µmol/L and further 7-fold for 10 concentration points, HEK293-GLP-2R-Luc cells; for Mean potency: mean of 8 tests, two analysts. As to the method:
To generate a HEK293 cell line stably expressing CRE-driven luciferase and GLP2R, the CRE-miniP.Luc virus-containing cell supernatants were diluted in DMEM in the presence of 8 µg/mL polybrene before being added to HEK293 cells. To obtain a stable cell pool, the medium was replaced 48 h after incubation, with fresh culture medium containing 3 µg/mL puromycin. After about 3 weeks selection, the cell pool was then further infected with pLU.cmv-GLP2R.Zeo virus and selected with 200 µg/mL Zeocin and 3 µg/mL puromycin. […] The expression of GLP-2R was examined using flow cytometry. After that, the positive clones were routinely maintained in selective medium.
Cell-based RGA has been described previously. Briefly, 50 microliters of HEK293-GLP-2R-Luc cells were seeded into a 96-well white plate at a density of 4 × 10^4 cells/well. The cells were then incubated at 37 °C with 5% CO2 overnight (16 to 24 h). […] After 5 h of incubation, 100 µL of britelite plus reporter Gene Assay reagent were added to each well and mixed thoroughly under subdued light conditions for 5 min. The RLU signal was then determined with a SpectraMax M5e multimode plate reader (Molecular Devices, San Jose, CA, USA).
The RGA was validated as described previously. […] Samples of each potency level were tested by two analysts 8 times in total. […] The response of HEK293-GLP2R-Luc cells to these samples were determined as illustrated in 4.6.
The lower/upper asymptote was determined by the ratio of the top asymptote to the bottom asymptote when RGA best fit the 4PL model. The correlation coefficient (R^2), deviations from parallelism, and the regression in the 4PL model were estimated using SoftMax® Pro 7.1 software (Molecular Devices, San Jose, CA, USA). Specifically, a linear regression with an R^2 value no less than 0.98 was considered to have a very good fit. Additionally, a p-value below 0.01 was regarded as statistically significant. […] All the dose-response curves were plotted using GraphPad Prism® software 8.0.2 (GraphPad, Boston, MA, USA).
(A reporter such as luciferase makes a cellular process visible.)

The subject of a further data set is rat. More on the design: method as in PMID 31577440. To be noted: head-to-head preclinical study; cited from earlier work.
On the set-up of data set [4]: method as in PMID 35933503. To be noted: general statement; cited from earlier work. The source says: The diverse functions of GLP-2 highlight its significance in maintaining intestinal health and physiology. As a naturally occurring gut hormone, GLP-2 not only promotes nutrient absorption by decreasing intestinal motility and permeability, but also plays a pivotal role in stimulating intestinal epithelial cell growth and function. This multifaceted action of GLP-2 is crucial for the maintenance of the intestinal barrier, which is essential for preventing the translocation of harmful bacteria and toxins into the bloodstream.

The test system of another data set is intestinal cells. More on the design: method as in PMID 32060615. To be noted: cited from earlier work.
The nature of data set [5]: Teduglutide content by HPLC after storage at 37 °C. To be noted: XBridge Peptide BEH C18, 214 nm, peak area ratio to non-treated DS. In kind it is physicochemical. As to the method:
The bioactivities of the treated and non-treated DS were then measured by the RGA. The teduglutide contents were analyzed by HPLC. An XBridge Peptide BEH C18 column (300 A, 5 μm, 4.6 mm × 250 mm) purchased from Waters (Milford, MA, USA) was used with a flow rate of 1.0 mL/min and was detected at 214 nm. The mobile phase was aqueous solution containing 0.1% trifluoroacetic acid and acetonitrile containing 0.1% trifluoroacetic acid. A total of 50 μL DS samples were injected into the column.

Data set [6] has as its target T1, human GLP-2R. The experiment in a line: Cell-based reporter gene assay (RGA), HEK293-GLP-2R-Luc, CRE-luciferase. The following applies: incubation time 5 h and 6 h, compared with 4 h; 96-well plate.
A short description of data set [7]: Appearance of teduglutide drug substance solution after storage at 37 °C. In kind it is physicochemical. The following applies: after incubation for 12 or 14 days at 37 °C.

Square brackets hold non-standard residues; d marks the D form. Ends that are not written are not given here. Nle = CCCC[C@H](N)C(=O)O

Consider nine substances from article PMC12073449, “Development of a Mechanism of Action-Reflective Cell-Based Reporter Gene Assay for Measuring Bioactivities of Therapeutic Glucagon-like Peptide-2 Analogues” (Molecules, 2025).

As to “GLP-2 (3–33): truncated and inactive GLP-2 formed by DPP-4 (DGSFSDEMNTILDNLAARDFINWLIQTKITD; Glucagon-like peptide 2; UniProt P01275 148-178, looked up, fragment)”, the “activity of truncated GLP-2” value in data set [1] (DPP-4 cleavage product) was “inactive”.

Consider Glucagon-like peptide-2 [GLP-2], for which, in data set [2], the neuronal differentiation entry is given as “stimulate neuronal differentiation”. Moreover, the “growth of the intestinal epithelium” value in the data set on intestinal epithelium is “enhances the growth of the intestinal epithelium”. Besides, the “inactivation by DPP-4” value in [1] (excision of the two N-terminal amino acids) was “rapid inactivation”. For the same substance, in the data set with patients with SBS (SBS), the “intestinal absorption, growth and transit in SBS” value is “increase intestinal absorption by promoting intestinal growth and delays accelerated gastric emptying, gastrointestinal transit, and hypersecretions”. In the data set on rat GLP-2R, the cAMP accumulation result is on record as “dose-dependent cAMP accumulation”.

In the case of “HGDGSFSDE[Nle][dF]TILDLLAARDFINWLIQTKITD-NH2 [apraglutide, GLP-2 analogue under development for SBS, synthesized by GenScript]”, in the data set with patients with SBS (Phase II clinical trials, SBS), the “dependence on PN support” value is listed as “significant reduction in patients’ dependence on PN support”. For the same substance, the “dose-response curve in RGA” value on human GLP-2R [3] was “induced sigmoid curves similar to those induced by teduglutide”. Also, in the data set on rat, the “half-life compared to teduglutide and glepaglutide” value is on record as “longer half-life”; the “intestinotrophic effect compared to teduglutide and glepaglutide” value is on record as “greater intestinotrophic effect”. Moreover, in [4], the bioactivity entry is given as “enhanced bioactivities” and the half-life entry is “extended half-lives”.

Turning to “HGEGSFSSELSTILDALAARDFINWLIATKITDKKKKKK [elsiglutide, GLP-2 analogue under development, synthesized by GenScript]”, in the data set on intestinal cells, the “cell proliferation and intestinal cell apoptosis” value is “increase cell proliferation and reduce intestinal cell apoptosis”. Also, the “dose-response curve in RGA” value at human GLP-2R [3] is listed as “induced sigmoid curves similar to those induced by teduglutide”. In addition, in [4], the bioactivity entry was “enhanced bioactivities” and the half-life result is listed as “extended half-lives”.

Consider “His-Gly-Asp-Gly-Ser-Phe-Ser-Asp-Glu-Met-Asn-Thr-Ile-Leu-Asp-Asn-Leu-Ala-Ala-Arg-Asp-Phe-Ile-Asn-Trp-Leu-Ile-Gln-Thr-Lys-Ile-Thr-Asp [teduglutide, [Gly2] hGLP-2 (1–33), first and only GLP-2 analogue approved for medical treatment of short bowel syndrome]”, for which the teduglutide content was 81.6% in [5] (end of decline with incubation at 37 °C) and 99.9% in [5] (start of decline, 37 °C). The “drug response vs incubation time” value with human GLP-2R [6] is given as “stronger response (higher upper asymptote)”. In addition, the “intestinal absorption, growth and transit in SBS” value in the data set on patients with SBS (SBS) was “increase intestinal absorption by promoting intestinal growth and delays accelerated gastric emptying, gastrointestinal transit, and hypersecretions”. For the same substance, the “PN requirements and intestinal function” value with patients with SBS (patients with SBS, daily treatment) was “significant reduction in PN requirements and an improvement in intestinal function”. The “response of five clones” value in the data set with human GLP-2R [3] (clones D5, D9, E11, F2, G11) is recorded as “high response”. Moreover, the “Mean Ln potency” value in the data set with human GLP-2R [3] (expected 50%) is given as −0.659; in the data set with human GLP-2R [3] (expected 71%) it was −0.343; in the data set with human GLP-2R [3] (expected 100%), 0.005; in the data set with human GLP-2R [3] (expected 141%) it was 0.372; with human GLP-2R [3] (expected 200%), 0.757. Besides, the Mean potency is recorded as 0.518 in the data set with human GLP-2R [3] (expected 50%); 0.711 in the data set with human GLP-2R [3] (expected 71%); 1.007 with human GLP-2R [3] (expected 100%); 1.453 with human GLP-2R [3] (expected 141%); 2.140 in the data set with human GLP-2R [3] (expected 200%). In addition, the bioactivity entry in data set [4] is reported as “enhanced bioactivities”. The half-life entry in data set [4] is listed as “extended half-lives”. Further, the “precipitation of DS solution” value in data set [7] is listed as “develops a clear colloidal precipitate”.

With IL-4: 200-04, Thermo Fisher Scientific, the “concentration–response curve in RGA (specificity)” value (shortened to “concentration–response curve”) in the data set with human GLP-2R [3] is reported as “no dose–dependent response curve was induced”.

As to IL-6: 200-06, Thermo Fisher Scientific, in the data set with human GLP-2R [3], the “concentration–response curve” value is reported as “no dose–dependent response curve was induced”.

For the substance glucagon-like peptide-1 [GLP-1], the “concentration–response curve” value with human GLP-2R [3] is on record as “unsuccessfully induced”.

Consider “glucose-dependent insulinotropic peptide [GIP]”, for which, in the data set with human GLP-2R [3], the “concentration–response curve” value is “unsuccessfully induced”.
